Measurements from publication PMC11959277, “Trichocystatin-2 from Trichomonas vaginalis: role of N-terminal cysteines in aggregation, protease inhibition, and trichomonal cysteine protease-dependent cytotoxicity on HeLa cells” (Frontiers in Parasitology, 2025).
“And” between values parts separate entries of the source, which are not always exact repeats. Equal values may be shown once.

B1: recombinant wild-type trichocystatin-2 (rTC-2) (natural protein)
chain: MSCGGGCCCGAAKPANVQDEHVIQAFKDAIALGNQKNGTTLEYIQLLSATQKVVSGYIFEGVVKTNDGDYKVKIWCKPGNTEKELQLFEKA
notes: trichocystatin-2 (TC-2), Trichomonas vaginalis, TrichDB TVAG_272260; 10-kDa cystatin of the stefin type; the TC-2 gene cloned in pCold I as in Puente-Rivera et al., 2014; No tag removal is described; Mixture of monomer, dimer and higher forms in SEC

Key:
[1] = target: recombinant TC-2Δ11 deletion mutant (rTC-2Δ11) (Trichomonas vaginalis) (UniProt A2FXT2); experiment: SEC; analytical SEC, Superdex 200 pg HiLoad 26/600, 5 mg protein loaded, 50 mM Tris-HCl pH 8.0, 100 mM NaCl, 0.02% NaN3, room temperature (23-25°C); samples stored 1 month at 4°C
[2] = target: recombinant TC-2Δ11 deletion mutant (rTC-2Δ11) (Trichomonas vaginalis) (UniProt A2FXT2); experiment: SEC; analytical SEC, Superdex 200 pg HiLoad 26/600, 5 mg protein loaded, 50 mM Tris-HCl pH 8.0, 100 mM NaCl, 0.02% NaN3, room temperature (23-25°C); samples stored 3 months at 4°C
A2FXT2 = experiment: SEC; analytical SEC, Superdex 200 pg HiLoad 26/600, 5 mg protein loaded, 50 mM Tris-HCl pH 8.0, 100 mM NaCl, 0.02% NaN3, room temperature (23-25°C); samples stored 1 month at 4°C
[3] = target: the molecule itself; experiment: as above
[4] = target: the molecule itself; experiment: SEC; analytical SEC, Superdex 200 pg HiLoad 26/600, 5 mg protein loaded, 50 mM Tris-HCl pH 8.0, 100 mM NaCl, 0.02% NaN3, room temperature (23-25°C); samples stored 3 months at 4°C

Row | Molecule | Area (%) of the dimer peak [1] [%] | stoichiometry N [1] | Area (%) of the dimer peak [2] [%] | stoichiometry N [2] | Area (%) of the peak of high molecular weight aggregates (A2FXT2) [%] | stoichiometry N [3] | stoichiometry N [4]
1 | recombinant TC-2Δ11 deletion mutant (rTC-2Δ11) (from UniProt A2FXT2 12-91) (domain or fragment) | 19.5 | 2 | 25.8 | 2 |  |  | 
2 | B1 |  |  |  |  | 2.2 | 2 | 2 and 4
